Measured values taken from patent US8507440B2, “Protein kinase C peptides for use in withdrawal” (The Board of Trustees of the Leland Stanford Junior …, priority 2002, dated 2013).
Ends that are not written are not given here.

Experiments:
[1] = system: postnatal day 7 rats; assay: naloxone-precipitated morphine withdrawal, mechanical threshold and thermal paw withdrawal latency in vivo; parameters: species or system rat; conditions: 10 μM in 5 μl intrathecally prior to morphine 1 mg/kg s.c.; naloxone 0.25 mg/kg 30 min after morphine
Method: In vivo studies on opiate withdrawal allodynia and hyperalgesia were conducted using postnatal day 7 rats. As described in Example 2, postnatal day 7 rats were given morphine subcutaneously followed 30 minutes later by naloxone or saline. Mechanical threshold using von Frey filaments to produce the flexion withdrawal response of the hind paw and thermal stimulation to measure the paw withdrawal latency were measured as described in Example 2.
FIG. 5A illustrates a treatment protocol where rat pups were given a PKC antagonist intrathecally (e.g., directly into the cerebrospinal fluid surrounding the spinal cord) prior to subcutaneous morphine delivery. Thirty minutes after morphine delivery, naloxone was administered, followed by mechanical allodynia and thermal hyperalgesia testing (as described in Example 2).
Postnatal day 7 Sprague-Dawley rats (Charles River Laboratories) of both sexes were used. For all behavioural experiments rats were maintained at nesting temperature with overhead heatlamps.
To measure mechanical thresholds, rats were placed on an elevated wire mesh (2 mm openings). Von Frey hairs (Stoelting Co., WoodDale, Ill., USA) were used to elicit a cutaneous flexion withdrawal response as described by Fitzgerald et al. (Fitzgerald M., et al., PAIN […] INFANTS, CHILDREN AND ADOLESCENTS; Schetchter and Yaster, Eds., pp 11-32, Williams and Williams (Baltimore, Md.) (1993). Von Frey hairs of increasing intensity were applied three times to the plantar surface of the left hind paw until a paw withdrawal was elicited. The lowest intensity Von Frey hair required to produce a withdrawal reflex was recorded as the response threshold to a low-intensity mechanical stimulus.
Thermal paw withdrawal latencies were measured using the Ugo Basile Plantar Testing apparatus (Stoelting Co., WoodDale, Ill., USA). Briefly, postnatal day 7 rats were placed under inverted Plexiglas enclosures and the plantar surface of the left hindpaw was heated from below with the IR intensity of the lamp set at 30. Two baseline thermal response latency measures were collected prior to morphine administration with a cut-off of 20 seconds enlisted to prevent tissue damage.
Postnatal day 7 rats were administered 1 mg/kg morphine sulfate (Sigma) subcutaneously in 50 μl saline. Mechanical thresholds were measured 15 minutes later to establish analgesia. Rats were returned to their dam. At 30 or 120 minutes post morphine, rats were administered 0.25 mg/kg naloxone (Sigma) subcutaneously in 50 μl saline. Mechanical thresholds and thermal paw withdrawal latencies were measured in 10 minute intervals. Tat conjugated peptide inhibitors specific to the ε (εV1-2; SEQ ID NO:1, 10 μM) and γ ([…]; SEQ ID NO:2, 10 μM) isoforms of PKC, Tat carrier (10 μM), or saline were administered in 5 μl volumes intrathecally via direct lumbar puncture using a sterile 29 gauge 3/10 cc insulin syringe in rats lightly anesthetized with halothane. To allow for complete recovery from anesthetic, animals were administered peptides or control solutions 30 minutes prior to naloxone.
An unpaired T-test was used to determine the significance of post-naloxone measures from baseline measures. Significance between treatment groups for PKC inhibitor studies both in vivo and in vitro was determined by one way analysis of variance (ANOVA) followed by a post-hoc Bonferroni analysis. P-values<0.05 were considered significant. All statistical analysis was done with GraphPad Prism version 3.02.

[2] = molecular target: T1, γPKC (Rattus norvegicus, UniProt P63319); format: cell-based
T1 construct: from tissue; host or cells: lumbar spinal cord slices of postnatal day 7-10 Sprague-Dawley rats
Method: Fluorescence immunocytochemical studies were performed on the spinal cord sections, as described in Example 3. The sections were incubated with an anti-γPKC antibody and an anti-neuronal antibody to identify neurons. […] Translocation of γPKC was quantified by counting the number of cells with γPKC localized to the nucleus before (control) and after application of ethanol, as well as after washing with artificial cerebrospinal fluid. […] Two to three sections per animal were counted.
Fluorescence immunocytochemical studies were performed on spinal cord sections […] from control slices (perfused with ACSF for 70 minutes) and EtOH treated slices (perfused with ACSF for 30 minutes followed by 20 min 100 mM EtOH and 20 min wash with ACSF). The sections were incubated with a rabbit anti-PKCg polyclonal antibody (1:500) overnight at 4° C. In some cord sections, a mouse anti-neuronal nuclei monoclonal antibody (NeuN, 1:750) was added to identify neurons. After several washes with ACSF, the sections were labeled for 2 hours at room temperature with fluorescein-labeled secondary antibodies (1:500). Double immunofluorescence was assessed with a laser confocal microscope.

Substance: RLVLAS (also: Tat peptide conjugate; listed as Homo sapiens) [γV5-3]
- block of naloxone-precipitated morphine withdrawal allodynia and hyperalgesia [1]: had a smaller blocking effect
- number of cells having γPKC localized in the nucleus ([2]; peptide applied 20 minutes prior to ethanol): about 14
- block of γPKC translocation to the cytoplasm ([2]; peptide applied prior to ethanol exposure): effective to block γPKC translocation to the cytoplasm
